From article PMC8225996 (Frontiers in Cardiovascular Medicine, 2021)

Molecular target: T1, Angiotensin converting enzyme 2 (mouse (endogenous in primary brain …, UniProt Q8R0I0 18-805))
T1 construct: Angiotensin converting enzyme 2 (ACE2), type I membrane glycoprotein; endogenous in mouse brain microvascular endothelial cells; also called ACE2; ACE2 receptor; source: endogenous, mouse primary brain microvascular endothelial cells (C57BL/6 control; db/db diabetic), in lysate
Assay: co-IP; ACE2 antibody (2 ug) with 150 ug lysate of control endothelial cells treated with Spike; Catch and Release spin columns, 18 h at 4 C; blots probed for Rab5a
Settings: partners not purified

T1 sequence (Q8R0I0 18-805): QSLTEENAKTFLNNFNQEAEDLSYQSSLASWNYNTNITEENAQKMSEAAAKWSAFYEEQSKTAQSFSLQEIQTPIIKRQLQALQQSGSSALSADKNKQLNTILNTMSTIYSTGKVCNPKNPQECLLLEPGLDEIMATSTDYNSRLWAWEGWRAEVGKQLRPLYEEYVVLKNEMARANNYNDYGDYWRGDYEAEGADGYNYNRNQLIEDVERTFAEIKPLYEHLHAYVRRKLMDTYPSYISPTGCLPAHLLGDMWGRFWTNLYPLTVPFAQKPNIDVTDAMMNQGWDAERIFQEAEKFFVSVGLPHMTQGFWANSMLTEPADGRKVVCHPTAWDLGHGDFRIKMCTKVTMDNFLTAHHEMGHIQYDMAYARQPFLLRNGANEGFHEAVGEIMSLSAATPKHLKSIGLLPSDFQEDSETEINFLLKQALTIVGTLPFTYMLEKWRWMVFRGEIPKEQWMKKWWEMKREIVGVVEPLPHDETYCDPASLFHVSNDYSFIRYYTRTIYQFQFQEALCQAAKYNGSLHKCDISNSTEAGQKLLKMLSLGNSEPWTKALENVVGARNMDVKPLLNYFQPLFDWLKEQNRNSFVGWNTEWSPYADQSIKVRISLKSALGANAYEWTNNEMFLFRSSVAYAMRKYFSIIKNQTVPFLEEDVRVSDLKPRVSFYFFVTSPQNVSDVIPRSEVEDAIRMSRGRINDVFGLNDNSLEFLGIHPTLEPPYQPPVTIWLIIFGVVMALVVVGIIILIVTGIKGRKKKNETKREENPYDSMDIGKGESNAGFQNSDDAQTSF

B1: Rab5a (natural protein, UniProt Q9CQD1 1-215, looked up)
chain: MANRGATRPNGPNTGNKICQFKLVLLGESAVGKSSLVLRFVKGQFHEFQESTIGAAFLTQTVCLDDTTVKFEIWDTAGQERYHSLAPMYYRGAQAAIVVYDITNEESFARAKNWVKELQRQASPNIVIALSGNKADLANKRAVDFQEAQSYADDNSLLFMETSAKTSMNVNEIFMAIAKKLPKNEPQNPGANSARGRGVDLTEPAQPARSQCCSN
notes: Rab5a, Rab GTPase of the endolysosomal trafficking pathway; endogenous in mouse brain microvascular endothelial cells; source: endogenous, mouse primary brain microvascular endothelial cells (C57BL/6 control; db/db diabetic), in lysate
- fold change of association with ACE2, Spike-treated against untreated cells: 2 fold
